# Assay results taken from US20250073334A1 (University of California, published 2025).
# B1: CpG-ST-E2 nanoparticle (ST-E2 with CpG 1826 conjugated in the internal cavity) (other)
# chain: MAHIVMVDAYKPTKGSGTAGGGSGSLSVPGPAAAEEKAAPAAAKPATTEGEFPETREKMSGIRRAIAKAMVHSKHTAPHVTLMDEADVTKLVAHRKKFKAIAAEKGIKLTFLPYVVKALVSALREYPVLNTSIDDETEEIIQKHYYNIGIAADTDRGLLVPVIKHADRKPIFALAQEINELAEKARDGKLTPGEMKGASCTITNIGSAGGQWFTPVINHPEVAILGIGRIAEKPIVRCGEIVAAPMLALSLSFDHRMIDGATAQKALNHIKRLLSDPELLLMEA
# Tests used:
# [1] = target: SpyCatcher-H5 hemagglutinin construct (avian influenza A); assay: SpyTag/SpyCatcher reaction, SDS-PAGE
# [2] = target: SpyCatcher-CBU1910 fusion protein (Coxiella burnetii); assay: SpyTag/SpyCatcher conjugation, SDS-PAGE
binder,measurement,setting,value
B1,binding result,[1],binds
same,binding result,[2],binds
